Results: patent publication US20130244255A1, “ANTIBODIES DIRECTED TO GPNMB AND USES THEREOF” (priority 2006, published 2013)

What was measured:
[1] = Pharmacokinetics of CR011-vcMMAE after intravenous administration (sandwich ELISA of antibody in serum); type: in vivo, athymic mice; conditions: for A (pre-exponential constant for alpha phase) / AUC (total area under the curve from 0 to infinity) / Alpha (exponential rate constant for alpha phase) / Alpha-Half Life / B (pre-exponential constant for beta phase) / Beta (exponential rate constant for beta phase) / Beta-Half Life / Cl (total or systemic clearance) / MRT (mean residence time) / Volume (volume of central compartment) / Vss (steady-state volume of distribution): athymic mice, i.v.
Description: The concentration-time pattern was bi-phasic. […] Nevertheless, the compound disappeared very slowly from the peripheral blood (T1/2β=10.3 days) with serum concentrations of […] and 10 μg/mL remaining in the blood for 6 weeks after dosing.

[2] = tested on: SK-MEL-5 human melanoma xenograft; experiment: SK-MEL-5 human melanoma xenograft in athymic mice; type: in vivo
Description: The tumor inhibitory activity of the CR011-MMAE immunoconjugate was measured in an anti-tumor xenograft model using athymic mice, according to published methods (see Geran et al., Cancer Chemother. Rep. 3:1-104 (1972)). […] When tumors became established (10-20 days), the animals were pair-matched into groups (n=6 mice/group), and treatment was administered by intravenous injection (tail vein).
The SK-MEL-2 human melanoma (ATCC #HTB-68) was derived from a metastatic site (skin of thigh) of a person with malignant melanoma, and the SK− MEL-5 human melanoma (ATCC #HTB-70) was derived from a metastatic site (axillary lymph node) of a person with malignant melanoma (see Fogh et al., J. Natl. Cancer Inst. 59: 221-226 (1977)). Both cell lines were obtained from the American Type Culture Collection.
The effects of treatment were monitored by repetitive tumor measurements across 2 diameters with Vernier calipers; tumor size (in mg) was calculated using a standard formula, (W^2×L)/2, assuming a specific gravity of 1.0. Tumor size and body weights were assessed twice weekly. Mice were examined daily, however, and moribund animals were humanely euthanized if clinical indications of excessive pain or distress were noted (i.e., prostration, hunched posture, paralysis/paresis, distended abdomen, ulcerations, abscesses, seizures, and/or hemorrhages) Animals with tumors exceeding 2,000 mg were removed from the study and euthanized humanely.
Soon after the commencement of treatment with paclitaxel, however, significant tumor growth inhibition was observed (P≦0.039) at day 3 after treatment began, and this anti-tumor effect continued, producing 100% growth inhibition (stasis). The responses of SK-MEL-5-bearing test animals to vinblastine and paclitaxel were short-lived. After cessation of treatment at the maximally tolerated doses, tumors resumed rapid, progressive growth.

SK-Mel-2 cells [3] = experiment: Clonogenic assay, SK-Mel-2 cells after GPNMB siRNA; type: cell-based, human
Description: (§1) Cells were plated in 96-well plates and allowed to recover overnight. […] The cells were then transferred into 6-well plates and allowed to form colonies. Colonies were stained with Giemsa stain (Sigma) and counted. The surviving cell fractions were calculated based upon the ratio of the treated sample and the untreated control. The results were expressed as a percentage of control using GraphPad Prism Version 4 software.
The amount of GPNMB expression was reduced for at least 7 days after transfection.

HEK293 cells = experiment: Clonogenic assay, HEK293 cells transfected with GPNMB or empty vector; type: cell-based, human; conditions: 96 hours treatment
Description: as §1
Immunoblot (FIG. 9A) and FACS (FIG. 9B) analyses confirmed that GPNMB was expressed in GPNMB/plasmid transfected cells.

[4] = tested on: Lymphoma or leukemia cell lines; experiment: Clonogenic assay (methylcellulose) with 1.15.1-AE, lymphoma and leukemia panel; type: cell-based, human
Description: Lymphoma or leukemia cell lines were mixed with methylcellulose base media (R&D Systems, USA) and in various concentrations of unconjugated and Auristatin E-conjugated 1.15.1 antibody before plating onto 6-well tissue culture plates (Becton Dickinson, Franklin Lakes, N.J., USA). […] Plates were incubated at 37° C. and examined daily. On days 14-18, colonies on the plates were counted.

SK-Mel-2 cells [5] = experiment: Apoptosis analysis (Annexin V-FITC / PI); type: cell-based, human; conditions: SK-Mel-2, 48 hour, 1000 ng/mL
Description: (§2) Briefly, cells were pulsed at the indicated times with 30 μM of bromodeoxyuridine (BrdU, Sigma) for 30 min, harvested, fixed and permeabilized in methanol. Nascent DNA synthesis was detected by anti-bromodeoxyuridine-FITC (BD Biosciences, San Jose, Calif.) staining. Total DNA content was detected using propidium iodide (PI, Sigma). For apoptosis analysis, cells were treated as above and labeled with Annexin V-FITC followed by propidium iodide exclusion using the Annexin V-FITC Apoptosis Detection kit I (BD PharMingen, San Diego, Calif.) according to the manufacturer's protocols. Flow cytometry (as described in the previous Example) was used to assay both cell cycle and apoptosis studies.
(§3) To investigate this possibility, analysis of apoptosis using Annexin-V surface binding and loss of propidium iodide (PI) exclusion was performed.

TK-10 control cells = experiment: Apoptosis analysis (Annexin V-FITC / PI); type: cell-based, human; conditions: TK-10, 48 hour, 1000 ng/mL
Description: as §2, §3

CG56972-expressing cells = experiment: Internalization of cell surface bound antibodies (flow cytometry); type: cell-based, human; conditions: following incubation with CG56972-expressing cells
Description: Internalization of cell surface bound antibodies was assessed by a modified flow cytometry procedure. […] After washing cells, incubation was shifted to 37° C. for 1 hr to allow internalization of bound antibodies. Cells that remained on ice (total surface bound) or that were incubated at 37° C. […] Labeled cells were analyzed by flow cytometry as described above. The percentage of antibody internalized was determined using the GMRs and the following formula:
Percent internalized=Total surface bound (4° C.)−Total surface bound (37° C.)/Total surface bound (4° C.)×100

Substance: CR011-vcMMAE: CR011 conjugated to monomethyl auristatin E through a protease cleavable valine-citrulline linker; approx. 4 drugs per antibody
- T1/2β ([1]; 1 or 10 mg/kg intravenously): 10.3 days
- A (pre-exponential constant for alpha phase) ([1]; 1 mg/kg): 8.97 µg/mL
- AUC (total area under the curve from 0 to infinity) ([1]; 1 mg/kg): 3712 µg·h/mL
- Alpha (exponential rate constant for alpha phase) ([1]; 1 mg/kg): 0.179 h⁻¹
- Alpha-Half Life ([1]; 1 mg/kg): 0.162 days
- B (pre-exponential constant for beta phase) ([1]; 1 mg/kg): 9.82 µg/mL
- Beta (exponential rate constant for beta phase) ([1]; 1 mg/kg): 0.00269 h⁻¹
- Beta-Half Life ([1]; 1 mg/kg): 10.8 days
- Cl (total or systemic clearance) ([1]; 1 mg/kg): 6.46 mL/day/kg
- MRT (mean residence time) ([1]; 1 mg/kg): 15.3 days
- Volume (volume of central compartment) ([1]; 1 mg/kg): 0.0532 L/kg
- Vss (steady-state volume of distribution) ([1]; 1 mg/kg): 0.099 L/kg
- A (pre-exponential constant for alpha phase) ([1]; 10 mg/kg): 74.6 µg/mL
- AUC (total area under the curve from 0 to infinity) ([1]; 10 mg/kg): 41210 µg·h/mL
- Alpha (exponential rate constant for alpha phase) ([1]; 10 mg/kg): 0.0812 h⁻¹
- Alpha-Half Life ([1]; 10 mg/kg): 0.3555 days
- B (pre-exponential constant for beta phase) ([1]; 10 mg/kg): 113 µg/mL
- Beta (exponential rate constant for beta phase) ([1]; 10 mg/kg): 0.00281 h⁻¹
- Beta-Half Life ([1]; 10 mg/kg): 10.3 days
- Cl (total or systemic clearance) ([1]; 10 mg/kg): 5.83 mL/day/kg
- MRT (mean residence time) ([1]; 10 mg/kg): 14.5 days
- Volume (volume of central compartment) ([1]; 10 mg/kg): 0.0532 L/kg
- Vss (steady-state volume of distribution) ([1]; 10 mg/kg): 0.0845 L/kg
- volume of distribution at steady state (Vss) ([1]; in words): very low
- earliest significant anti-tumor effects, time after treatment began ([2]; 10 mg/kg/treatment, compared to PBS-treated controls (P=0.039)): 10 days
- doses at which complete regressions occurred ([2]; i.v., q4d×4): ≥ 2.5 mg/kg
- anti-tumor effect (in words) ([2]; i.v., CR011-vcMMAE 1.25 to 20 mg/kg q4d×4, vinblastine […] q4d×4): Substantial tumor growth inhibition, as well as tumor growth delay and complete regressions
- toxicity (mortality, body weight or weight gain) ([2]; mouse, in vivo): no indication of toxicity
- sensitivity of SK-Mel-2 cells to growth-inhibitory activity following siRNA-mediated GPNMB knockdown (SK-Mel-2 cells [3]): less sensitive
- sensitivity of GPNMB-expressing HEK293 cells vs control cells to growth-inhibition (HEK293 cells): more sensitive

Substance: CR011: fully human monoclonal antibody that specifically binds to GPNMB; VH SEQ ID NO: 20, VL SEQ ID NO: 29
- effect on growth of all antigen positive hematopoietic cell lines (in words) [4]: no effect on growth
- % AnnV+/PI+ UR (SK-Mel-2 cells [5]): 0.45%
- % AnnV+/PI− LR (SK-Mel-2 cells [5]): 4.74%
- % AnnV−/PI+ UL (SK-Mel-2 cells [5]): 0.36%
- % AnnV+/PI+ UR (TK-10 control cells): 0.34%
- % AnnV+/PI− LR (TK-10 control cells): 0.55%
- % AnnV−/PI+ UL (TK-10 control cells): 0.83%
- internalization (in words) (CG56972-expressing cells): internalized
